# B1: Heavy metal-associated isoprenylated plant protein 26 (Arabidopsis thaliana (Mouse-ear cress)), Q9SZN7 (parent)
# chain: MGVLDHVSEMFDCSHGHKIKKRKQLQTVEIKVKMDCEGCERKVRRSVEGMKGVSSVTLEPKAHKVTVVGYVDPNKVVARMSHRTGKKVELWPYVPYDVVAHPYAAGVYDKKAPSGYVRRVDDPGVSQLARASSTEVRYTTAFSDENPAACVVM
# partner: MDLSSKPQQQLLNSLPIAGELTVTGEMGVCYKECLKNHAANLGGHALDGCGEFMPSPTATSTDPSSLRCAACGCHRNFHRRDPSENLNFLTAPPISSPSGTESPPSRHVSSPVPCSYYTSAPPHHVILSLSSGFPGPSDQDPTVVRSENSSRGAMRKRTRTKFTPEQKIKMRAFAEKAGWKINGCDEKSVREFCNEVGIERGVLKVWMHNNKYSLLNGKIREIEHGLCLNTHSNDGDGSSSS
# Variants of: B1
# Details: with zhd11_arath ZHD11, Q9SEZ1
row,effect of a mutation on the interaction,Variant
1,disrupting interaction,C36G;C39G
